Measurements published in paper PMC4643051.

B1: unnamed (parent)
chain 1: DSGCVVSWKNKELKCGSGIFITDNVHTWTEQYKFQPESPSKLASAIQKAHEEGICGIRSVTRLENLMWKQITPELNHILSENEVKLTIMTGDIKGIMQAGKRSLRPQPTELKYSWKTWGKAKMLSTESHNQTFLIDGPETAECPNTNRAWNSLEVEDYGFGVFTTNIWLKLKEKQDVFCDSKLMSAAIKDNRAVHADMGYWIESALNDTWKIEKASFIEVKNCHWPKSHTLWSNGVLESEMIIPKNLAGPVSQHNYRPGYHTQITGPWHLGKLEMDFDFCDGTTVVVTEDCGNRGPSLRTTTASGKLITEWCCRSCTLPPLRYRGEDGCWYGMEIRPLKEKEENLVNSLVTA
chain 2: FHLTTRNGEPHMIVSRQEKGKSLLFKTEDGVNMCTLMAMDLGELCEDTITYKCPLLRQNEPEDIDCWCNSTSTWVTYGTCTTMGEHRRQKRSVALVPHVGMGLETRTETWMSSEGAWKHVQRIETWILRHPGFTMMAAILAYTIGTTHFQRALIFILLTAVTPSMT

Variants of: B1
Details: with partner chain of the complex shown;; read off a plot

Row | Variant | ratio to parent
1 | chain 1 T117A | 1.5 fold of WT
2 | chain 1 D180A | 1.5 fold of WT
3 | chain 1 S114A | 0.27 fold of WT
4 | chain 1 W115A | 0.45 fold of WT
5 | chain 1 T301A | 1.7 fold of WT
